In patent publication US12410262B2, “Peptide conjugates of cytotoxins as therapeutics” (Cybrexa 2, Inc., priority 2019, dated 2025):
Read-outs that look alike come from different tables or passages of the source.

Columns and labels:
Plasma stability studies = type: in vitro ADME; settings: rat plasma, 100 μM conjugate, 37° C.
Method: A 20 mM stock of conjugate was prepared in 100% DMSO. The stocks were subsequently diluted in 100 mM Tris, pH 7.5 to yield an intermediate dilution of 500 μM and then diluted 1:5 directly into rat plasma to yield a final concentration of 100 μM of conjugate. Samples were mixed by inversion and incubated at 37° C. for up to 24 h. 50 μL samples were aliquoted into siliconized microfuge tubes at time 0, 4, and 24 h and immediately frozen at −80° C.
(§1) Samples were thawed and extracted as follows: 8 μL of 25% phosphoric acid followed by 117 μL of 100% Acetonitrile/0.1% TFA was added to each sample, mixed and centrifuged at 13000×G for 10 minutes. The supernatant was pipetted into 0.2 mL HPLC vials and placed on a Perkin Elmer Flexar HPLC autosampler. The following table summarizes HPLC conditions:
Data was analyzed by calculating the percentage reduction of compound (area of retention time peak of incubated conjugate/area of retention time peak of conjugate at time 0)×100.

HCT116 = assay: cells; type: cell-based, human
Method: Cells were plated in 96 well black walled-clear bottom plates (Griener), DLD-1 WT cells at 2500 cells per well, FaDu, and HeLa cells at 5000 cells per well, and HCT116 at 3000 cells per well, in growth media containing 10% FBS. Cells were allowed to adhere at room temperature for 60 minutes before returning to a 37 C, 5% CO2 incubator. After 24 hours, media was removed and replaced with fresh growth media containing various drug concentrations. Each drug concentration was added in triplicate. Non-drug treated controls contained growth media only. Cells were returned to the incubator. Ninety-six hours after addition of drug, cells were fixed with 4% paraformaldehyde for 20 minutes and stained with Hoechst at 1 ug/mL. The plates were imaged on a Cytation 5 auto imager (BioTek) and cells were counted using CellProfiler (http://cellprofiler.org). The percent cell growth delay was calculated and data plotted using GraphPad Prism

[1] = Glutathione cleavage study; type: in vitro ADME; settings: Tris buffer with 10 mM glutathione, Glutathione Challenge (10 mM), 100 μM conjugate, Tris pH 7.5, 37° C.
Method: A 20 mM stock of conjugate was prepared in 100% DMSO. The stocks were subsequently diluted in 100 mM Tris, pH 7.5, to yield an intermediate dilution of 500 μM followed by an additional dilution of 1:5 in 100 mM Tris, pH 7.5 to give a final concentration of 100 μM of conjugate. 100 mM glutathione was prepared immediately prior to use in H2O and diluted 1:10 in challenge samples for a final glutathione challenge concentration of 10 mM. Samples were mixed by inversion and incubated at 37° C. for up to 24 hrs. […]
as §1, with “100% acetonitrile/0.1%” for “100% Acetonitrile/0.1%”, “TFA were” for “TFA was”
Data was analyzed by calculating the percentage reduction of compound (area of retention time peak of […] conjugate/area of retention time peak of conjugate at time 0)×100.

Compound | remaining at 4 h, 100 µM (Plasma stability studies) | remaining at 24 h, 100 µM (Plasma stability studies) | IC50 (HCT116; 96 h) | remaining at 4 h, 100 µM [1] | remaining at 24 h, 100 µM [1] | IC50 (HCT116; HCT-116 cells, 96 h after addition of drug, second table (Compounds 11-29), read-out: HCT-116 (IC50))
CC[C@@]1(O)C(=O)OCc2c1cc1n(c2=O)Cc2c-1nc1cc(F)c(C)c3c1c2[C@@H](NC(=O)O[C@@H]1CCC[C@H]1SSC[C@H](NC(=O)[C@H](Cc1c[nH]c2ccccc12)NC(=O)[C@H](CC(C)C)NC(=O)[C@H](CC(C)C)NC(=O)[C@H](CC(=O)O)NC(=O)[C@H](CC(C)C)NC(=O)[C@H](CC(C)C)NC(=O)[C@H](CC(C)C)NC(=O)[C@@H](NC(=O)[C@H](CC(=O)O)NC(=O)[C@@H](NC(=O)[C@@H]1CCCN1C(=O)[C@H](Cc1ccccc1)NC(=O)[C@H](CC(C)C)NC(=O)[C@H](CC(C)C)NC(=O)[C@H](CC(=O)O)NC(=O)[C@H](CC(C)C)NC(=O)[C@H](Cc1ccc(O)cc1)NC(=O)[C@H](C)NC(=O)[C@H](CCCNC(=N)N)NC(=O)[C@H](Cc1c[nH]c2ccccc12)NC(=O)[C@@H]1CCCN1C(=O)[C@H](CC(N)=O)NC(=O)[C@H](CCC(N)=O)NC(=O)[C@H](CC(=O)O)NC(=O)[C@H](CC(=O)O)NC(=O)[C@H](C)N)[C@@H](C)O)[C@@H](C)O)C(=O)NCC(=O)O)CC3 [Compound 14] | 106% | 106% | 4.7 nM | 14.9% | 6.5% | –
CC[C@@]1(O)C(=O)OCc2c1cc1n(c2=O)Cc2c-1nc1cc(F)c(C)c3c1c2[C@@H](NC(=O)O[C@@H]1CCCC[C@H]1SSC[C@H](NC(=O)[C@H](Cc1c[nH]c2ccccc12)NC(=O)[C@H](CC(C)C)NC(=O)[C@H](CC(C)C)NC(=O)[C@H](CC(=O)O)NC(=O)[C@H](CC(C)C)NC(=O)[C@H](CC(C)C)NC(=O)[C@H](CC(C)C)NC(=O)[C@@H](NC(=O)[C@H](CC(=O)O)NC(=O)[C@@H](NC(=O)[C@@H]1CCCN1C(=O)[C@H](Cc1ccccc1)NC(=O)[C@H](CC(C)C)NC(=O)[C@H](CC(C)C)NC(=O)[C@H](CC(=O)O)NC(=O)[C@H](CC(C)C)NC(=O)[C@H](Cc1ccc(O)cc1)NC(=O)[C@H](C)NC(=O)[C@H](CCCNC(=N)N)NC(=O)[C@H](Cc1c[nH]c2ccccc12)NC(=O)[C@@H]1CCCN1C(=O)[C@H](CC(N)=O)NC(=O)[C@H](CCC(N)=O)NC(=O)[C@H](CC(=O)O)NC(=O)[C@H](CC(=O)O)NC(=O)[C@H](C)N)[C@@H](C)O)[C@@H](C)O)C(=O)NCC(=O)O)CC3 [Compound 13] | – | – | 21 nM | – | – | –
CC[C@@]1(O)C(=O)OCc2c1cc1n(c2=O)Cc2c-1nc1cc(F)c(C)c3c1c2[C@@H](NC(=O)O[C@H]1Cc2ccccc2C[C@@H]1SSC[C@H](NC(=O)[C@H](Cc1c[nH]c2ccccc12)NC(=O)[C@H](CC(C)C)NC(=O)[C@H](CC(C)C)NC(=O)[C@H](CC(=O)O)NC(=O)[C@H](CC(C)C)NC(=O)[C@H](CC(C)C)NC(=O)[C@H](CC(C)C)NC(=O)[C@@H](NC(=O)[C@H](CC(=O)O)NC(=O)[C@@H](NC(=O)[C@@H]1CCCN1C(=O)[C@H](Cc1ccccc1)NC(=O)[C@H](CC(C)C)NC(=O)[C@H](CC(C)C)NC(=O)[C@H](CC(=O)O)NC(=O)[C@H](CC(C)C)NC(=O)[C@H](Cc1ccc(O)cc1)NC(=O)[C@H](C)NC(=O)[C@H](CCCNC(=N)N)NC(=O)[C@H](Cc1c[nH]c2ccccc12)NC(=O)[C@@H]1CCCN1C(=O)[C@H](CC(N)=O)NC(=O)[C@H](CCC(N)=O)NC(=O)[C@H](CC(=O)O)NC(=O)[C@H](CC(=O)O)NC(=O)[C@H](C)N)[C@@H](C)O)[C@@H](C)O)C(=O)NCC(=O)O)CC3 [Compound 18] | 104% | 93% | 2.9 nM | 60.1% | 13% | –
CC[C@@]1(O)C(=O)OCc2c1cc1n(c2=O)Cc2c-1nc1cc(F)c(C)c3c1c2[C@@H](NC(=O)OC[C@@H](SSC[C@H](NC(=O)[C@H](Cc1c[nH]c2ccccc12)NC(=O)[C@H](CC(C)C)NC(=O)[C@H](CC(C)C)NC(=O)[C@H](CC(=O)O)NC(=O)[C@H](CC(C)C)NC(=O)[C@H](CC(C)C)NC(=O)[C@H](CC(C)C)NC(=O)[C@@H](NC(=O)[C@H](CC(=O)O)NC(=O)[C@@H](NC(=O)[C@@H]1CCCN1C(=O)[C@H](Cc1ccccc1)NC(=O)[C@H](CC(C)C)NC(=O)[C@H](CC(C)C)NC(=O)[C@H](CC(=O)O)NC(=O)[C@H](CC(C)C)NC(=O)[C@H](Cc1ccc(O)cc1)NC(=O)[C@H](C)NC(=O)[C@H](CCCNC(=N)N)NC(=O)[C@H](Cc1c[nH]c2ccccc12)NC(=O)[C@@H]1CCCN1C(=O)[C@H](CC(N)=O)NC(=O)[C@H](CCC(N)=O)NC(=O)[C@H](CC(=O)O)NC(=O)[C@H](CC(=O)O)NC(=O)[C@H](C)N)[C@@H](C)O)[C@@H](C)O)C(=O)NCC(=O)O)C(C)C)CC3 [Compound 27] | 117% | 109% | 0.7 nM | 18% | 0% | –
CC[C@@]1(O)C(=O)OCc2c1cc1n(c2=O)Cc2c-1nc1cc(F)c(C)c3c1c2[C@@H](NC(=O)O[C@@H]1COC[C@H]1SSC[C@H](NC(=O)[C@H](Cc1c[nH]c2ccccc12)NC(=O)[C@H](CC(C)C)NC(=O)[C@H](CC(C)C)NC(=O)[C@H](CC(=O)O)NC(=O)[C@H](CC(C)C)NC(=O)[C@H](CC(C)C)NC(=O)[C@H](CC(C)C)NC(=O)[C@@H](NC(=O)[C@H](CC(=O)O)NC(=O)[C@@H](NC(=O)[C@@H]1CCCN1C(=O)[C@H](Cc1ccccc1)NC(=O)[C@H](CC(C)C)NC(=O)[C@H](CC(C)C)NC(=O)[C@H](CC(=O)O)NC(=O)[C@H](CC(C)C)NC(=O)[C@H](Cc1ccc(O)cc1)NC(=O)[C@H](C)NC(=O)[C@H](CCCNC(=N)N)NC(=O)[C@H](Cc1c[nH]c2ccccc12)NC(=O)[C@@H]1CCCN1C(=O)[C@H](CC(N)=O)NC(=O)[C@H](CCC(N)=O)NC(=O)[C@H](CC(=O)O)NC(=O)[C@H](CC(=O)O)NC(=O)[C@H](C)N)[C@@H](C)O)[C@@H](C)O)C(=O)NCC(=O)O)CC3 [Compound 16] | 116% | 106% | 1.7 nM | 3.4% | 2% | –
CC[C@@]1(O)C(=O)OCc2c1cc1n(c2=O)Cc2c-1nc1cc(F)c(C)c3c1c2[C@@H](NC(=O)O[C@H]1Cc2ccccc2C[C@@H]1SSC[C@H](NC(=O)[C@H](Cc1c[nH]c2ccccc12)NC(=O)[C@H](CC(C)C)NC(=O)[C@H](CC(C)C)NC(=O)[C@H](CC(=O)O)NC(=O)[C@H](CC(C)C)NC(=O)[C@H](CC(C)C)NC(=O)[C@H](CC(C)C)NC(=O)[C@@H](NC(=O)[C@H](CC(=O)O)NC(=O)[C@@H](NC(=O)[C@@H]1CCCN1C(=O)[C@H](Cc1ccccc1)NC(=O)[C@H](CC(C)C)NC(=O)[C@H](CC(C)C)NC(=O)[C@H](CC(=O)O)NC(=O)[C@H](CC(C)C)NC(=O)[C@H](Cc1ccc(O)cc1)NC(=O)[C@H](C)NC(=O)[C@H](CCCNC(=N)N)NC(=O)[C@H](Cc1c[nH]c2ccccc12)NC(=O)[C@@H]1CCCN1C(=O)[C@H](CC(N)=O)NC(=O)[C@H](CCC(N)=O)NC(=O)[C@H](CC(=O)O)NC(=O)[C@H](CC(=O)O)NC(=O)[C@H](C)N)[C@@H](C)O)[C@@H](C)O)C(=O)NCC(=O)O)CC3 [Compound 19] | – | – | 1.8 nM | – | – | –
CC[C@@]1(O)C(=O)OCc2c1cc1n(c2=O)Cc2c-1nc1cc(F)c(C)c3c1c2[C@@H](NC(=O)O[C@H](C)[C@@H](C)SSC[C@H](NC(=O)[C@H](Cc1c[nH]c2ccccc12)NC(=O)[C@H](CC(C)C)NC(=O)[C@H](CC(C)C)NC(=O)[C@H](CC(=O)O)NC(=O)[C@H](CC(C)C)NC(=O)[C@H](CC(C)C)NC(=O)[C@H](CC(C)C)NC(=O)[C@@H](NC(=O)[C@H](CC(=O)O)NC(=O)[C@@H](NC(=O)[C@@H]1CCCN1C(=O)[C@H](Cc1ccccc1)NC(=O)[C@H](CC(C)C)NC(=O)[C@H](CC(C)C)NC(=O)[C@H](CC(=O)O)NC(=O)[C@H](CC(C)C)NC(=O)[C@H](Cc1ccc(O)cc1)NC(=O)[C@H](C)NC(=O)[C@H](CCCNC(=N)N)NC(=O)[C@H](Cc1c[nH]c2ccccc12)NC(=O)[C@@H]1CCCN1C(=O)[C@H](CC(N)=O)NC(=O)[C@H](CCC(N)=O)NC(=O)[C@H](CC(=O)O)NC(=O)[C@H](CC(=O)O)NC(=O)[C@H](C)N)[C@@H](C)O)[C@@H](C)O)C(=O)NCC(=O)O)CC3 [Compound 12] | – | – | – | – | – | 2.6 nM
